Molecular target: T1, kinase suppressor of Ras 1 (KSR1), endogenous (human (endogenous in HEK293), UniProt Q8IVT5 1-923)
T1 sequence (looked up): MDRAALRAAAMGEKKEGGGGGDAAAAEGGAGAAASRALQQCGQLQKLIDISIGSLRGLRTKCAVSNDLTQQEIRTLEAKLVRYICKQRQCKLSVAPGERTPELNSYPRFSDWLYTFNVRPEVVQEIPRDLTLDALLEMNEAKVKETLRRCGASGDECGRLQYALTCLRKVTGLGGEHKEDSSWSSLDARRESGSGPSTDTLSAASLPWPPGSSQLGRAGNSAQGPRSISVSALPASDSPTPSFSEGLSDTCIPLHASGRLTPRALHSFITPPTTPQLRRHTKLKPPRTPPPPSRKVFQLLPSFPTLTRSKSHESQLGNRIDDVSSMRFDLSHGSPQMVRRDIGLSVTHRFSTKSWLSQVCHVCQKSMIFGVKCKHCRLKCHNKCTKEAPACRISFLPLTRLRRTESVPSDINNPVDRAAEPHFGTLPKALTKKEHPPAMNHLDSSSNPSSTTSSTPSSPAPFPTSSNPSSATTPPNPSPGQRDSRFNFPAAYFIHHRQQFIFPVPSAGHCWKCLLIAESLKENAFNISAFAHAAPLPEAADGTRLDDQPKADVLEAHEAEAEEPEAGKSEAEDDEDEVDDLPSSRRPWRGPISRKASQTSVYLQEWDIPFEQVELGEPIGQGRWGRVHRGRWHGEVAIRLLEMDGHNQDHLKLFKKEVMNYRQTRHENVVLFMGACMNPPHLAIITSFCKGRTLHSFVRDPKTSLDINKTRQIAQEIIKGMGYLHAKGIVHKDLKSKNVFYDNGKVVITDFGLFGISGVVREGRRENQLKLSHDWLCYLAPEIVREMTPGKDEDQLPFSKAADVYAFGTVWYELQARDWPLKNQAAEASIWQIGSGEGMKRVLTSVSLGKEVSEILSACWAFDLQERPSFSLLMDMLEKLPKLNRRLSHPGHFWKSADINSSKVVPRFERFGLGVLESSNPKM
Assay: cell-based or functional assay

B1: praja2 (endogenous) (natural protein, human (endogenous in HEK293), UniProt O43164 1-708, looked up)
chain: MSQYTEKEPAAMDQESGKAVWPKPAGGYQTITGRRYGRRHAYVSFKPCMTRHERSLGRAGDDYEVLELDDVPKENSSGSSPLDQVDSSLPSEPIFEKSETEIPTCGSALNQTTESSQSFVAVHHSEEGRDTLGSSTNLHNHSEGEYIPGACSASSVQNGIALVHTDSYDPDGKHGEDNDHLQLSAEVVEGSRYQESLGNTVFELENREAEAYTGLSPPVPSFNCEVRDEFEELDSVPLVKSSAGDTEFVHQNSQEIQRSSQDEMVSTKQQNNTSQERQTEHSPEDAACGPGHICSEQNTNDREKNHGSSPEQVVRPKVRKLISSSQVDQETGFNRHEAKQRSVQRWREALEVEESGSDDLLIKCEEYDGEHDCMFLDPPYSRVITQRETENNQMTSESGATAGRQEVDNTFWNGCGDYYQLYDKDEDSSECSDGEWSASLPHRFSGTEKDQSSSDESWETLPGKDENEPELQSDSSGPEEENQELSLQEGEQTSLEEGEIPWLQYNEVNESSSDEGNEPANEFAQPAFMLDGNNNLEDDSSVSEDLDVDWSLFDGFADGLGVAEAISYVDPQFLTYMALEERLAQAMETALAHLESLAVDVEVANPPASKESIDGLPETLVLEDHTAIGQEQCCPICCSEYIKDDIATELPCHHFFHKPCVSIWLQKSGTCPVCRRHFPPAVIEASAAPSSEPDPDAPPSNDSIAEAP
growth of MCF-7 cells treated for 48 h with go-onERK-Flag against scrambled-Flag (cell counts): ~2 fold
